T1: SiMYB3 (Setaria italica, UniProt K3YEJ5 1-315)
T1 sequence: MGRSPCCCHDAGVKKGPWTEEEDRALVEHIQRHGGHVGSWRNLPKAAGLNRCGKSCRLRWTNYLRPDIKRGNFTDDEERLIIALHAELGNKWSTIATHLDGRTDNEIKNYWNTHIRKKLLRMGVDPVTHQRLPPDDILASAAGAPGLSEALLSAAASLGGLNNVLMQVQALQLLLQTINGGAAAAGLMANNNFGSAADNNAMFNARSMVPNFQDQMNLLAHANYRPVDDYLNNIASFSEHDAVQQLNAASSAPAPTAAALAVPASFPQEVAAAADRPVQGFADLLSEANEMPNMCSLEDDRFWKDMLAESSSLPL

B1: TAR2 promoter MYB-element probe (dsDNA)
DNA 1: TTAAGTACATGAGTTAGGTTCGTAATCCAATA
DNA 2: TATTGGATTACGAACCTAACTCATGTACTTAA
B2: OsFIB promoter MYB-motif probe (dsDNA)
DNA 1: GCGATAGAATGTGTCGTATCCCGAGCTAGTTTTGTTCGAACATACAGCC
DNA 2: GGCTGTATGTTCGAACAAAACTAGCTCGGGATACGACACATTCTATCGC
B3: TAR2 promoter mutant probe (dsDNA)
DNA 1: TTAAGTACATGATTAATTAACGTAATCCAATA
DNA 2: TATTGGATTACGTTAATTAATCATGTACTTAA

The target of this series is T1, SiMYB3. In words: EMSA; EMSA 20 uL: 30 ng GST-SiMYB3, 400 fmol biotin probe, 10 mM Tris pH 7.5, 50 mM KCl, 1 mM DTT, 2.5% glycerol, 5 mM MgCl2, 50 ng/uL poly(dI-dC), 0.05% NP-40; temperature not stated. The conditions noted are these: protein: recombinant; label: biotin.
As to B1, the binding result is recorded as “binds”.
In the case of B2, the binding result is on record as “binds”.
As to B3, the binding result is on record as “no binding”.
